We go through one substance from patent US20220340635A1, “FUSION PROTEIN FOR TREATMENT OF METABOLIC DISEASE” (ZHEJIANG DOER BIOLOGICS CORPORATION, priority 2019, published 2022).

The assay addresses β-klotho (KLB). As to the kind of experiment: cell-based or functional assay.

“Natural FGF21 (from UniProt Q9NSA1 29-209) (ligand)” gave an FGF21 activity (EC50, nM) of 0.12 nM.
